Measurements as given in patent US7229806B2, “Microbial conversion of glucose to para-hydroxystyrene” (E. I. du Pont de Nemours and Company, priority 2002, dated 2007).
Where a chain is given by its changes, count along the chain named. Blank lines part the entries; values can stand above or below the molecule they belong to.

Experiments:
E. coli NST74 = assay: Toxicity of pHCA and pHS to the cells; format: cell-based; conditions: previous studies
[1] = target: TAL activity of the PAL/TAL enzyme (Rhodotorula toruloides, UniProt P11544); assay: Inhibition of TAL activity by pHCA; format: biochemical, R. glutinis
Description: (§1) An E. coli strain containing the wild type pal/tal gene (PAL/TAL ratio of 2.0) uses both PAL and TAL routes to convert glucose to both CA and pHCA. […] Based on the kinetic information it is expected that the presence of phenylalanine would interfere with the TAL activity of the enzyme.

[2] = TAL/PAL activity ratio of wild type and mutant PAL/TAL enzymes, separate TAL and PAL measurements in whole cells; format: biochemical; conditions: ratio of TAL catalytic activity to PAL catalytic activity
Protocol: In order to select for those mutants having genes encoding proteins with enhanced TAL activity, a selection system based on the reversibility of the tyrosine to PHCA reaction was developed. It will be appreciated that the TAL activity responsible for the conversion of tyrosine to pHCA is in a state of equilibrium with the opposite reaction. Mutant genes were cloned by standard methods into E. coli tyrosine auxotrophs, unable to grow in the absence of tyrosine. Transformants were plated on tyrosine minus medium in the presence of suitable concentrations of pHCA. Those colonies which grew under these conditions were picked and analyzed for the presence of the mutant gene. In this fashion, a gene was isolated that expressed an enzyme having a catalytic efficiency of about 12.6×10^3 M^−1sec^−1 and a ratio of TAL catalytic activity to PAL catalytic activity of 1.7 compared to 0.5 for the wild type.
A simple method is disclosed that relies on separate measurements of the TAL and PAL activities in whole cells. The ratio of TAL to PAL activity then may be calculated and quickly compared to wild type activity, to monitor changes in the bio-catalyst activity.
Using the above approach Applicants have identified a variety of mutant PAL enzymes that have increased TAL activity, compared to the wild type gene. These mutants were identified using the methods of mutagenesis and screening described above. The mutants, the altered amino acid residues, and the TAL/PAL activity are summarized below.

[3] = Kinetic studies with the PAL/TAL enzyme (Vmax, PAL/TAL ratio); format: biochemical
Description: as §1

[4] = Characterization of purified PDC enzymes (pHCA as substrate); format: biochemical; conditions: PDC enzyme
Protocol: The reaction was initiated by the addition of 1.0 μL of enzyme to a 1.0 mL solution containing 25 mM phosphate buffer, pH 6.0, and 0.2 mM pHCA in a plastic, UV transparent cuvette. The reaction was then followed for 5 minutes spectrophotometrically at 315 nm at room temperature, using a molar extinction coefficient of […] for pHCA disappearance. The specific activity was expressed as micromoles of pHCA degraded per minute per milligram of protein.
The characteristics of the PDC enzymes isolated from L. plantarum and B. subtilis were obtained using standard spectrometric and electrophoretic techniques and are listed in Table 5.

Molecule: O=C(O)C=Cc1ccc(O)cc1 [pHCA, para-Hydroxycinnamic acid]
- toxic to the cells (E. coli NST74): toxic
- Ki [1]: 16 µM

Molecule: C=Cc1ccc(O)cc1 [pHS, para-Hydroxystyrene]
- toxic to the cells (E. coli NST74): toxic
- concentration showing toxicity to the cells (E. coli NST74; as low as): ≥ 500 µg/mL

- PAL/TAL ratio ([3]; wild type pal/tal gene in E. coli): 2.0
B1: Wild Type PAL: wild type phenylalanine-tyrosine ammonia lyase (pal/tal) enzyme from R. glutinis, SEQ ID NO:2 (protein, listed as Rhodotorula glutinis)
chain: MAPSLDSISHSFANGVASAKQAVNGASTNLAVAGSHLPTTQVTQVDIVEKMLAAPTDSTLELDGYSLNLGDVVSAARKGRPVRVKDSDEIRSKIDKSVEFLRSQLSMSVYGVTTGFGGSADTRTEDAISLQKALLEHQLCGVLPSSFDSFRLGRGLENSLPLEVVRGAMTIRVNSLTRGHSAVRLVVLEALTNFLNHGITPIVPLRGTISASGDLSPLSYIAAAISGHPDSKVHVVHEGKEKILYAREAMALFNLEPVVLGPKEGLGLVNGTAVSASMATLALHDAHMLSLLSQSLTAMTVEAMVGHAGSFHPFLHDVTRPHPTQIEVAGNIRKLLEGSRFAVHHEEEVKVKDDEGILRQDRYPLRTSPQWLGPLVSDLIHAHAVLTIEAGQSTTDNPLIDVENKTSHHGGNFQAAAVANTMEKTRLGLAQIGKLNFTQLTEMLNAGMNRGLPSCLAAEDPSLSYHCKGLDIAAAAYTSELGHLANPVTTHVQPAEMANQAVNSLALISARRTTESNDVLSLLLATHLYCVLQAIDLRAIEFEFKKQFGPAIVSLIDQHFGSAMTGSNLRDELVEKVNKTLAKRLEQTNSYDLVPRWHDAFSFAAGTVVEVLSSTSLSLAAVNAWKVAAAESAISLTRQVRETFWSAASTSSPALSYLSPRTQILYAFVREELGVKARRGDVFLGKQEVTIGSNVSKIYEAIKSGRINNVLLKMLA
- TAL/PAL ratio [2]: 0.5
- Vmax for PAL ([3]; previous kinetic studies): 5.5
- Vmax for TAL ([3]; previous kinetic studies): 0.76

B2: RM120-4: mutant TAL enzyme, SEQ ID NO:16 (protein)
chain: B1 chain with S181X, V235X, I540X
modifications: Mutant from Rhodotorula glutinis
- TAL/PAL ratio [2]: 2.0

B3: RM120-1: mutant TAL enzyme, SEQ ID NO:14 (protein)
chain: B1 chain with D126X, Q138X, I540X
modifications: Mutant from Rhodotorula glutinis
- TAL/PAL ratio [2]: 7.2

B4: RM120-7: mutant TAL enzyme, SEQ ID NO:17 (protein)
chain: B1 chain with S149X, I202X, I540X
modifications: Mutant from Rhodotorula glutinis
- TAL/PAL ratio [2]: 0.8

B5: B. subtilis: para-hydroxycinnamic acid decarboxylase (pdc2) from B. subtilis, SEQ ID NO:6, expressed in E. coli and purified (protein, listed as Bacillus subtilis)
chain: MENFIGSHMIYTYENGWEYEIYIKNDHTIDYRIHSGMVAGRWVRDQEVNIVKLTEGVYKVSWTEPTGTDVSLNFMPNEKRMHGIIFFPKWVHEHPEITVCYQNDHIDLMKESREKYETYPKYVVPEFAEITFLKNEGVDNEEVISKAPYEGMTDDIRAGRL
- Km [4]: 1300 µM

B6: L. plantarum: para-hydroxycinnamic acid decarboxylase (pdc1) from L. plantarum, SEQ ID NO:4, expressed in E. coli and purified (protein, listed as Lactobacillus plantarum)
chain: MTKTFKTLDDFLGTHFIYTYDNGWEYEWYAKNDHTVDYRIHGGMVAGRWVTDQKADIVMLTEGIYKISWTEPTGTDVALDFMPNEKKLHGTIFFPKWVEEHPEITVTYQNEHIDLMEQSREKYATYPKLVVPEFANITYMGEGQNNEDVISEAPYKEMPNDIRNGKYLIKTTIV
- Km [4]: 1400 µM

B7: RM492-1: mutant TAL enzyme, SEQ ID NO:18 (protein)
chain: MAPSLDSISHSFANGVASAKQAVNGASTNLAVAGSHLPTTQVTQVDIVEKMLAAPTDSTLELDGYSLNLGDVVSAARKGRPVRVKDSDEIRSKIDKSVEFLRSQLSMSVYGVTTGFGGSADTRTEDAISLQKALLEHQLCGVLPSSFDSFRLGRGLENSLPLEVVRGAMTIRVNSLTRGHSAVRLVVLEALTNFLNHGITPIVPLRGTISASGDLSPLSYIAAAISGHPDSKVHVVHEGKEKILYAREAMALFNLEPVVLGPKEGLGLVNGTAVSASMATLALHDAHMLSLLSQSLTAMTVEAMVGHAGSFHPFLHDVTRPHPTQIEVAGNIRKLLEGSRFAVHHEEEVKVKDDEGILRQDRYPLRTSPQWLGPLVSDLIHAHAVLTIEAGQSTTDNPLIDVENKTSHHGGNFQAAAVANTMEKTRLGLAQIGKLNFTQLTEMLNAGMNRGLPSCLAAEDPSLSYHCKGLDIAAAAYTSELGHLANPVTTHVQPAEMANQAGNSLALISARRTTESNDVLSLLLATHLYCVLQAIDLRATEFEFKKQFGPAIVSLIDQHFGSAMTGSNLRDELVEKVNKTLAKRLEQTNSYDLVPRWHDAFSFAAGTVVEVLSSTSLSLAAVNAWKVAAAESAISLTRQVRETFWSAASTSSPALSYLSPRTQILYAFVREELGVKARRGDVFLGKQEVTIGSNVSKIYEAIKSGRINNVLLKMLA
modifications: not fully specified
- TAL/PAL ratio [2]: 2.0
